Experimental data: patent US20030100492A1, “Proteoglycans and pharmaceutical compositions comprising them” (published 2003)

Legend:
[1] = target: Soluble FGFR2-alkaline phosphatase fusion protein (FR2-AP) (human) (UniProt P05187); assay: FGF on Syn4-Fc, FGFR-AP; alkaline phosphatase activity and cross-linking of the receptors to radio-labeled bFGF
[2] = target: Recombinant human FGF2 (human, UniProt P09038, 125I label in the FIG. 1 assay and in the FGFR2-AP direct binding assay); assay: immunoprecipitation with anti-P710, incubation with 50 ng FGF2, FB-8 immunoblot

| fold less than with FGFR1 [1] [fold less] | fold more FGF2 bound than syndecan-4 from the CHO-KI parental cells [2] [fold] | Molecule |
| --- | --- | --- |
| 2 |  | Recombinant human FGF2 (from UniProt P09038) (ligand) |
|  | ~3 | Mouse syndecan-4 (full length) overexpressed in CHO-KI cells (other, heparan sulfate chains) ESIRETEVIDPQDLLEGRYFSGALPDDEDAGGSDDFELSGSGDLDDTEEPRPFPEVIEPLVPLDNHIPENAQPGIRVPSEPKELEENEVIPKRAPSDVGDDMSNKVSMSSTVQGSNIFERTEVLAALIVGGVVGILFAVFLILLLVYRMKKKDEGSYDLGKKPIYKKAPTNEFYA |
